Source: patent US20180319855A1, “GENETICALLY MUTATED AEQUORIN-BASED BIOSENSORS WITH EXTRA SENSITIVITY TO CALCIUM AND IMPROVED BIOLUMINESCENCE INTENSITY” (CENTRE NATIONAL DE LA RECHERCHE SCIENTIFIQUE (CNRS), priority 2015, published 2018)
Numbering of substitutions follows the chain as printed. Names may count otherwise. Like-named read-outs stand apart in the source and are kept apart here.

How the values were obtained:
[1] = Tsuzuki et al. 2005; cited from earlier work
[2] = background art; cited from earlier work
[3] = Thermostability: relative bioluminescence activity after 30 min incubation; type: physicochemical; conditions: CLZ-f
Method: Thermostability of aequorin and redquorin mutant with increased affinity for calcium were compared to wt-aequorin (FIG. 5). The purified photoprotein samples were reconstituted with CLZ-f (as detailed earlier) and let to calibrate at room temperature (20-24° C.) for 20 min before taken the first measurement of total counts using saturating calcium solution (50 mM Tris-HCl, 100 mM CaCl2, pH 7.5). Samples were then incubated at two different temperatures (30 to 40° C.) for 30 min, and let equilibrate at room temperature for 15 minbefore taken the second measurement of total counts in the sample. The relative bioluminescence activity at each temperature was calculated by the ratio 2nd counts (at target T° C.)/1st counts (at initial T° C.) multiplied by 100.
Table 6 highlights the analysis of thermostability data obtained at two temperatures for aequorin and redquorin mutants, as well as CitA and GA. The values represent the degree of change in luminescence activity compared to wt-aeq, at each temperature. All values are relative to wt-aequorin (at each temperature) and were calculated by dividing the obtained data for each mutant/variant by the data for wt-aeq (as reference). The data were taken from FIG. 5.

[4] = Ca2+ sensitivity curves of reconstituted photoproteins (L/Lmax vs free Ca2+); type: biochemical; conditions: for EC50: read-out: Calcium sensitivity, EC50
Method: For in vitro reconstitution, the purified and concentrated samples of apoaequorin and redquorin mutant proteins were buffer-exchanged to 50 mM Tris-HCl (pH 7.5), 150 mM NaCl, 10 mM EGTA, 5 mM ß-mercaptoethanol, supplemented with 5 μM CLZ-f or CLZ-native and incubated overnight at 4° C., in the dark. The next day, samples were passed through molecular weight cut-offs (AmiconUitra MWCO, 10K and 50K, from Millipore), then resuspended in Zero-Ca^2+ buffer (30 mM MOPS, 100 mM KCl and 10 mM EGTA, pH 7.2) for calcium affinity, emission decay kinetics and spectral analysis assays. As for in cellulo reconstitution, HEK cells transiently expressing the proteins of apoaequorin and aporedquorin mutants were washed twice with Hank's Balanced Salt Solution (HBSS) and incubated in the dark, with 4 μM of the desired CLZ diluted in OptiMEM I medium (Gibco), for 2-3h at 37° C. and 5% CO2. Cells were washed once and maintained in HBSS at 37° C. for 20 min before the experiment.
Functional Analysis of Aequorin Mutants and Fusions Ca^2+ Sensitivity Curves.
Purified and reconstituted samples with CLZ-f or CLZ-native already buffered-exchanged to zero-calcium buffer ensured to minimize calcium contamination that could interfere with the measurements. Fifteen microliter aliquot of photoprotein samples (concentration range, 50 to 90 ng/μl) was placed in a home-made luminometer and mixed with 300 μl solution containing the desired concentration of free-Ca^2+. The solutions of EGTA-buffered with varying free-Ca^2+ prepared according to the manufacturer instruction for the kit (Molecular Probes, Invitrogen). Integration of the luminescence emission (per second) was measured for 20 seconds (background) before injecting a solution with known [free-Ca^2+] and lasted until stable or decaying signal (at final-phase) was obtained. At this point, 400 μl of a saturating calcium solution (30 mM MOPS, 100 mM CaCl2, pH 7.2) was rapidly injected (less than 30 ms) and light integration continued until all aequorin had been consumed and light intensity had gone back to background signal. Luminescence intensity (L) at different [Ca^2+] was taken as the response peak value in case of decaying signal or as the stable value in case of stable emission. Lmax, was measured by integrating all remaining luminescence signal from that moment (L value) to the end of the experiment. The EC50 values were extracted from a sigmoidal dose-response fit (variable slope) using GraphPad Prism software.

[5] = tested on: endogenous P2Y2 receptor; test: Assay of activation of endogenous P2Y2 receptor by ATP in CHO cells stably expressing photoproteins; type: cell-based; conditions: CHO cells stably expressing the sensor; for EC50: ATP dose-response, read-out: EC50 (half-maximal effective concentration of ATP for P2Y2 activation)
Method: Stably prepared CHO cells were loaded with 5 μM coelenterazine in 130 mM NaCl, 5 mM KCl, 1 mM MgCl2, 2 mM CaCl2, 5 mM NaHCO3, 20 mM N-(2-hydroxyethyl) piperazine-N′-ethanesulfonic acid (HEPES), pH 7.4 for 4 h at ambient temperature.
To produce stable CHO cell lines, the cells transfected with GA and Redquorin variant plasmids were seeded on six-well plates and grown in the same medium with addition of Geneticin sulfate (G418) (Gibco, UK) at 1 mg/ml under the same conditions with replacement of the medium by fresh medium every 2 days. After 7-10 days of selection, CHO cells were transferred into a medium without antibiotic. To select clones with the highest bioluminescence activity, one run of limiting dilution was performed. CHO cells after G418 selection were seeded on 96-well plates (approximately 0.5 cells per well) and grown in DMEM/F12 medium supplemented with 10% fetal calf serum at 37° C., 5% CO2 for up to 80-90% confluence. Before the bioluminescence measurements, the plates with monoclones of CHO cells expressing the corresponding photoprotein were duplicated and grown for up to 90-100% confluence. Then, the medium was removed and cells were loaded with coelenterazine, and bioluminescence in each well was measured according to the procedure described earlier. As a result, the CHO cell clones with the highest bioluminescence activity were selected.
Assay of Activation of Endogenous P2Y2 Receptor in CHO Cells
The CHO cell lines stably expressing each photoprotein were used in assay of activation of endogenous P2Y2 receptor by ATP. The day before the measurements, the corresponding cells were seeded on 96-well plates with DMEM/F12 medium supplemented with 10% fetal calf serum and were grown at 37° C. with 5% CO2 for up to 90-100% confluence. Then, the medium was replaced by 100 μl of coelenterazine solution per well (5 μM coelenterazine in 130 mM NaCl, 5 mM KCl, 1 mM MgCl2, 2 mM CaCl2, 5 mM NaHCO3, 20 mM HEPES, pH7.4) and the cells were incubated at 23° C. for 4 h. Emission from photoproteins in the cells was measured using a Mithras LB 940 plate luminometer. The ATP was injected at a given concentration to trigger an intracellular Ca^2+ response in the cells and the measurement started immediately. The bioluminescence was integrated over a time interval of 0.05 s for 30 s.

[6] = CLZ-f, L/Lmax compared to Aeq-wt
[7] = CLZ-f, redquorin series, CitA, GA
[8] = CLZ-native, redquorin series, CitA, GA

B1: E35G: aequorin mutation from random mutagenesis reported by Tsuzuki et al. 2005 (protein)
chain: SKLTSDFDNPRWIGRHKHMFNFLDVNHNGKISLDGMVYKASDIVINNLGATPEQAKRHKDAVEAFFGGAGMKYGVETDWPAYIEGWKKLATDELEKYAKNEPTLIRIWGDALFDIVDKDQNGAITLDEWKAYTKAAGIIQSSEDCEETFRVCDIDESGQLDVDEMTRQHLGFWYTMDPACEKLYGGAVP
- emission half-life (t½) [1]: 40 s

B2: V44A: aequorin mutant, valine 44 replaced by alanine (protein)
chain: B1 chain with G35E, V44A
- emission half-life (t½) [1]: 34 s

B3: Aeq-wt: wild-type aequorin: apoaequorin of Aequorea victoria (SEQ ID NO:1) reconstituted with coelenterazine (protein, listed as Aequorea aequorea)
chain: B1 chain with G35E
modifications: reconstituted with coelenterazine; SITE (1)..(189) wild-type aequorin
- emission half-life (t½) [1]: 0.8 s
- affinity of aequorin for calcium [2]: around 1 μM
- Thermostability, luminescence activity relative to wt-aequorin ([3]; 30° C. for 30 min): 1.00
- Thermostability, luminescence activity relative to wt-aequorin ([3]; 40° C. for 30 min): 1.00
- Relative intensity at pCa 6.5 [4, 6]: 1
- Relative intensity at pCa 7.2 [4, 6]: 1
- EC50 ([4]; aequorin proteins reconstituted with CLZ-f, sigmoidal curve fit, mean ± SD, n at least 3): 659 ± 23 nM

B4: Redq/QT + AD: aporedquorin mutant Q159T + A123D (SEQ ID NO:25) (protein)
chain: MVSKGEEVIKEFMRFKVRMEGSMNGHEFEIEGEGEGRPYEGTQTAKLKVTKGGPLPFAWDILSPQFMYGSKAYVKHPADIPDYKKLSFPEGFKWERVMNFEDGGLVTVTQDSSLQDGTLIYKVKMRGTNFPPDGPVMQKKTMGWEASTERLYPRDGVLKGEIHQALKLKDGGHYLVEFKTIYMAKKPVQLPGYYYVDTKLDITSHNEDYTIVEQYERSEGRHHLFLGHGTGSTGSGSSGTASSEDNNMAVIKEFMRFKVRMEGSMNGHEFEIEGEGEGRPYEGTQTAKLKVTKGGPLPFAWDILSPQFMYGSKAYVKHPADIPDYKKLSFPEGFKWERVMNFEDGGLVTVTQDSSLQDGTLIYKVKMRGTNFPPDGPVMQKKTMGWEASTERLYPRDGVLKGEIHQALKLKDGGHYLVEFKTIYMAKKPVQLPGYYYVDTKLDITSHNEDYTIVEQYERSEGRHHLFLSGFDNPRWIGRHKHMFNFLDVNHNGKISLDEMVYKASDIVINNLGATPEQAKRHKDAVEAFFGGAGMKYGVETDWPAYIEGWKKLATDELEKYAKNEPTLIRIWGDALFDIVDKDQNGDITLDEWKAYTKAAGIIQSSEDCEETFRVCDIDESGTLDVDEMTRQHLGFWYTMDPACEKLYGGAVP
modifications: mutant aequorin
- [ATP] DL (detection limit) [5]: 1230 ± 51 nM
- EC50 [5]: 3100 ± 400 nM
- Thermostability, luminescence activity relative to wt-aequorin ([3]; 30° C. for 30 min): 0.94
- Thermostability, luminescence activity relative to wt-aequorin ([3]; 40° C. for 30 min): 1.00
- EC50 [4, 7]: 336 ± 11 nM
- Relative intensity at pCa 6.5 ([4]; CLZ-f, relative to Redq): 14.4
- Relative intensity at pCa 7.2 ([4]; CLZ-f, relative to Redq): 7.4
- EC50 [4, 8]: 577 ± 33 nM
- Relative intensity at pCa 6.5 ([4]; CLZ-native, relative to Redq): 14.4
- Relative intensity at pCa 7.2 ([4]; CLZ-native, relative to Redq): 10.0

B5: Redq/QD + AT: aporedquorin mutant Q159D + A179T (SEQ ID NO:23) (protein)
chain: B4 chain with D587A, T623D, A643T
modifications: mutant aequorin
- [ATP] DL (detection limit) [5]: 562 ± 20 nM
- EC50 [5]: 2000 nM
- Thermostability, luminescence activity relative to wt-aequorin ([3]; 30° C. for 30 min): 1.00
- Thermostability, luminescence activity relative to wt-aequorin ([3]; 40° C. for 30 min): 1.03
- EC50 [4, 7]: 252 ± 40 nM
- Relative intensity at pCa 6.5 ([4]; CLZ-f, relative to Redq): 58.5
- Relative intensity at pCa 7.2 ([4]; CLZ-f, relative to Redq): 48.3
- EC50 [4, 8]: 515 ± 20 nM
- Relative intensity at pCa 6.5 ([4]; CLZ-native, relative to Redq): 32.1
- Relative intensity at pCa 7.2 ([4]; CLZ-native, relative to Redq): 24.5
